From patent US20190352359A1 (IMMATICS BIOTECHNOLOGIES, published 2019)

Biological target: T1, HLA-A*24
T1 construct: Monomers captured on streptavidin plates; also called peptide-receptive MHC molecules; MHC complexes
Assay: UV peptide-exchange ELISA (anti-b2m); yield grade ++++ = >75%
From the text: Candidate peptides for T cell based therapies according to the present invention were further tested for their MHC binding capacity (affinity). The individual peptide-MHC complexes were produced by UV-ligand exchange, where a UV-sensitive peptide is cleaved upon UV-irradiation, and exchanged with the peptide of interest as analyzed. Only peptide candidates that can effectively bind and stabilize the peptide-receptive MHC molecules prevent dissociation of the MHC complexes. To determine the yield of the exchange reaction, an ELISA was performed based on the detection of the light chain (p2m) of stabilized MHC complexes. The assay was performed as generally described in Rodenko et al. (Rodenko et al., 2006)
96 well MAXISorp plates (NUNC) were coated over night with 2 ug/ml streptavidin in PBS at room temperature, washed 4× and blocked for 1 h at 37° C. in 2% BSA containing blocking buffer. Refolded HLA-A*02:01/MLA-001 monomers served as standards, covering the range of 15-500 ng/ml. Peptide-MHC monomers of the UV-exchange reaction were diluted 100-fold in blocking buffer. Samples were incubated for 1 h at 37° C., washed four times, incubated with 2 ug/ml HRP conjugated anti-β2m for 1h at 37° C., washed again and detected with TMB solution that is stopped with […]. Absorption was measured at 450 nm. Candidate peptides that show a high exchange yield (preferably higher than 50%, most preferred higher than 75%) are generally preferred for a generation and production of antibodies or fragments thereof, and/or T cell receptors or fragments thereof, as they show sufficient avidity to the MHC molecules and prevent dissociation of the MHC complexes.

Row | Binder | peptide exchange yield [%]
1 | PYSIYPHGVTF (also called PYSIYPHGVTF) [F5-006] | > 75
2 | KIYTTVLFANI (also called KIYTTVLFANI) [NPFFR2-003] | > 75
3 | VYAFMNENF (also called VYAFMNENF) [QRFPR-004] | > 75
4 | LYPDSVFGRLF (also called LYPDSVFGRLF) [SMC1B-003] | > 75
5 | YFLPGPHYF (also called YFLPGPHYF) [SOX30-001] | > 75
6 | VYSNPDLFW (also called VYSNPDLFW) [TRDV3-002] | > 75
7 | PEYSLPVLTF (also called PEYSLPVLTF) [PTP-040] | > 75
8 | CYSFIHLSF (also called CYSFIHLSF) [NLR-006] | > 75
9 | HYHAESFLF (also called HYHAESFLF) [HEPHL-003] | > 75
10 | TYFFVDNQYW (also called TYFFVDNQYW) [MMP12-020] | > 75
11 | MYDLHHLYL (also called MYDLHHLYL) [EPY-001] | > 75
12 | FYNRLTKLF (also called FYNRLTKLF) [OFCC-001] | > 75
13 | RYLSVCERL (also called RYLSVCERL) [NKX-001] | > 75
14 | IYPEAIATL (also called IYPEAIATL) [SLC6A3-002] | > 75
15 | DYLLSWLLF (also called DYLLSWLLF) [CNR2-003] | > 75
16 | VYLDEKQHAW (also called VYLDEKQHAW) [TCL1A-005] | > 75
17 | LYAPTILLW (also called LYAPTILLW) [AFP-001] | > 75
18 | YYIATMALI (also called YYIATMALI) [CHRNA9-004] | > 75
19 | RWLSKPSLL (also called RWLSKPSLL) [KBTBD8-004] | > 75
20 | VYSDRQIYLL (also called VYSDRQIYLL) [ABCC11-006] | > 75
21 | IFLPFFIVF (also called IFLPFFIVF) [ADAM18-001] | > 75
22 | QKYYITGEAEGF (also called QKYYITGEAEGF) [ESR1-009] | > 75
23 | KFLGSKCSF (also called KFLGSKCSF) [HAS3-003] | > 75

Row | Binder | peptide exchange yield [%]
24 | LYMSVEDFI (also called LYMSVEDFI) [STK31-001] | > 75
25 | TYATHVTEI (also called TYATHVTEI) [CCR8-004] | > 75
26 | TYIDTRTVFL (also called TYIDTRTVFL) [CAPN6-005] | > 75
27 | YYIGIVEEYW (also called YYIGIVEEYW) [HEPHL-008] | > 75
28 | IYNKTKMAF (also called IYNKTKMAF) [SLCO6-001] | > 75
29 | IYNEHGIQQI (also called IYNEHGIQQI) [COL11A1-003] | > 75
30 | VFPSVDVSF (also called VFPSVDVSF) [PTP-043] | > 75
31 | LYTVPFNLI (also called LYTVPFNLI) [SLC45A2-006] | > 75
32 | AWSPPATLF (also called AWSPPATLF) [LOXL4-002] | > 75
33 | MLPEASLLI (also called MLPEASLLI) [NLRP4-005] | > 75
34 | AYLQFLSVL (also called AYLQFLSVL) [GREB-002] | > 75
35 | MYTIVTPML (also called MYTIVTPML) [OR1N1-001] | > 75
36 | IWPGFTTSI (also called IWPGFTTSI) [PIWIL1-003] | > 75
37 | QYLQQQAKL (also called QYLQQQAKL) [FOXB1-002] | > 75
38 | FFLQESPVF (also called FFLQESPVF) [ABCC11-004] | > 75
39 | IYVSLAHVL (also called IYVSLAHVL) [ANO7-002] | > 75
40 | ALMSAFYTF (also called ALMSAFYTF) [MMP11-020] | > 75
41 | FYFYNCSSL (also called FYFYNCSSL) [ERV-001] | > 75
42 | LYICKVELM (also called LYICKVELM) [CTL-001] | > 75
43 | QRYGFSSVGF (also called QRYGFSSVGF) [RHBG-001] | > 75
44 | IFPKTGLLII (also called IFPKTGLLII) [MAGEA4-008] | > 75
45 | AYVTEFVSL (also called AYVTEFVSL) [SCN3A-001] | > 75
46 | LSSPVHLDF (also called LSSPVHLDF) [FCRL5-007] | > 75

Row | Binder | peptide exchange yield [%]
47 | AYPQIRCTW (also called AYPQIRCTW) [FLT3-009] | > 75
48 | AFQNVISSF (also called AFQNVISSF) [NMUR2-003] | > 75
49 | RYFIAAEKILW (also called RYFIAAEKILW) [HEPHL-005] | > 75
50 | KYVDINTFRL (also called KYVDINTFRL) [MMP12-018] | > 75
51 | PYWWNANMVF (also called PYWWNANMVF) [NOTU-001] | > 75
52 | VYISDVSVY (also called VYISDVSVY) [CLECL-003] | > 75
53 | TQAGEYLLF (also called TQAGEYLLF) [FLT3-012] | > 75
54 | SYTPLLSYI (also called SYTPLLSYI) [C1orf94-002] | > 75
55 | IYTFSNVTF (also called IYTFSNVTF) [BTN1-003] | > 75
56 | ISWEVVHTVF (also called ISWEVVHTVF) [HMCN1-008] | > 75
57 | IYLLLPPVI (also called IYLLLPPVI) [OR51E2-004] | > 75
58 | VLPLHFLPF (also called VLPLHFLPF) [HBG2-001] | > 75
59 | IYSSQLPSF (also called IYSSQLPSF) [TFEC-004] | > 75
60 | TYSTNRTMI (also called TYSTNRTMI) [FLT3-013] | > 75
61 | FFYVTETTF (also called FFYVTETTF) [TERT-003] | > 75
62 | AYAPRGSIYKF (also called AYAPRGSIYKF) [HHIPL2-001] | > 75
63 | KYLITTFSL (also called KYLITTFSL) [NLRP2-008] | > 75
64 | FWFDSREISF (also called FWFDSREISF) [OR51E2-002] | > 75
65 | IFIPATILL (also called IFIPATILL) [ACSM1-001] | > 75
66 | IYKFIMDRF (also called IYKFIMDRF) [FOXB1-001] | > 75
67 | LYYGSILYI (also called LYYGSILYI) [OR9-001] | > 75
